Data on twelve molecules can be found in EP4714976A1.

Numbering of substitutions follows the chain as printed.

B1: 3E7 scFv-Fc (Fc fusion)
chain: QVQLQQSGAELVKPGASVKMSCKASGYTFTIYNIHWVRQTPGQGLEWIGLIYPDNGDTSYNQKFKAKATLTADKSSSTAYMQLSSLTSEDSAVYYCARGGFDYWGQGTTLTVSSGGGGSGGGGSGGGGSNIVMTQSQKFMSTSVGDRVSVTCKASQNVGTNVAWYQQKPGQSPKALIYSASYRYSGVPDRFTGSGSGTDFTLTISGVQAEDLADYYCQQHYNTPYTFGGGTKLEIKESKYGPPCPPCPAPEAAGGPSVFLFPPKPKDTLMISRTPEVTCVVVDVSQEDPEVQFNWYVDGVEVHNAKTKPREEQFNSTYRVVSVLTVLHQDWLNGKEYKCKVSNKGLPSSIEKTISKAKGQPREPQVYTLPPSQEEMTKNQVSLTCLVKGFYPSDIAVEWESNGQPENNYKTTPPVLDSDGSFFLYSKLTVDKSRWQEGNVFSCSVMHEALHNHYTQKSLSLSLG
B2: 3C7 scFv-Fc (Fc fusion)
chain: EIQLQQSGAELVKPGASVKMSCKASGYIFRNYYIHWVKRTPGQGLEWIGAIYPDNGDTSYNQRFKVKATLTADTSSSTAYMQLSSLTSEDSAVYYCARAFTYWGQGTTLTVSSGGGGSGGGGSGGGGSDIQMIQSPASLSASVGETVTITCGASENIYGALNWYQRKQGKSPQLLIYGATNLADGMSSRFSGSGSGRQYSLKISSLHPDDVATYYCQNVLSTPYTFGGGTKLEIKESKYGPPCPPCPAPEAAGGPSVFLFPPKPKDTLMISRTPEVTCVVVDVSQEDPEVQFNWYVDGVEVHNAKTKPREEQFNSTYRVVSVLTVLHQDWLNGKEYKCKVSNKGLPSSIEKTISKAKGQPREPQVYTLPPSQEEMTKNQVSLTCLVKGFYPSDIAVEWESNGQPENNYKTTPPVLDSDGSFFLYSKLTVDKSRWQEGNVFSCSVMHEALHNHYTQKSLSLSLG
B3: 3A12 scFv-Fc (Fc fusion)
chain: EVQLQQSGAELVKPGASVKMSCKASGYTFSFYNVHWVRQTPGQGLEWIGLIYPDNGDTSYNQKFKAKATLTADKSSSAAYMQLSSLTSEDSAVYYCARGGFDYWGQGTSLTVSSGGGGSGGGGSGGGGSDIVMTQSHKFMSTSVGDRVNITCKASQDVSTAVAWYQQKPGQSPKLLIYSASYRYSGVPDRFTGSGSGTDFTFTISSVQAEDLAVYYCQQHYSTPYTFGGGTKLEMKESKYGPPCPPCPAPEAAGGPSVFLFPPKPKDTLMISRTPEVTCVVVDVSQEDPEVQFNWYVDGVEVHNAKTKPREEQFNSTYRVVSVLTVLHQDWLNGKEYKCKVSNKGLPSSIEKTISKAKGQPREPQVYTLPPSQEEMTKNQVSLTCLVKGFYPSDIAVEWESNGQPENNYKTTPPVLDSDGSFFLYSKLTVDKSRWQEGNVFSCSVMHEALHNHYTQKSLSLSLG
B4: 3H6 scFv-Fc (Fc fusion)
chain: QVQLQQSGAELVKPGASVKMSCKASGYTFSFYNIHWVRQTPGQGLEWIGLIYPDNGDTSYNQKFKAKATLTADKSSSTAYMQLSSLTSEDSAVYYCARGGFDYWGQGTTLTVSSGGGGSGGGGSGGGGSDIQMTQSPASLSASVGETVTITCRASENIYSYLAWYQQKQGKSPQLLVYNAKTLAEGVPSRFSGSGSGTQFSLKINSLQPEDFGSYYCQHHYGTPYTFGGGTKLEMKESKYGPPCPPCPAPEAAGGPSVFLFPPKPKDTLMISRTPEVTCVVVDVSQEDPEVQFNWYVDGVEVHNAKTKPREEQFNSTYRVVSVLTVLHQDWLNGKEYKCKVSNKGLPSSIEKTISKAKGQPREPQVYTLPPSQEEMTKNQVSLTCLVKGFYPSDIAVEWESNGQPENNYKTTPPVLDSDGSFFLYSKLTVDKSRWQEGNVFSCSVMHEALHNHYTQKSLSLSLG
B5: 2B1 scFv-Fc (Fc fusion)
chain: EVQLQQSGAELVKPGASVKMSCKASGYTFASYNLHWVKQTPGQGLEWIGLIYPENGDTSYNQKFKGKATLTADKSSSTAYIQLSSLTSEDSAVYFCARGGFDYWGQGTSLTVSSGGGGSGGGGSGGGGSDIQMIQSPASLSVSVGETVTITCRASENIYSNLAWYQQKQGKSPQLLVYNAKTLADGVPSRFSGSGSGTQYSLKINSLQPEDFGSYYCQHFWSTPYTFGGGTKLEIKESKYGPPCPPCPAPEAAGGPSVFLFPPKPKDTLMISRTPEVTCVVVDVSQEDPEVQFNWYVDGVEVHNAKTKPREEQFNSTYRVVSVLTVLHQDWLNGKEYKCKVSNKGLPSSIEKTISKAKGQPREPQVYTLPPSQEEMTKNQVSLTCLVKGFYPSDIAVEWESNGQPENNYKTTPPVLDSDGSFFLYSKLTVDKSRWQEGNVFSCSVMHEALHNHYTQKSLSLSLG
B6: 3F10 scFv-Fc (Fc fusion)
chain: EVQLQQSGAELVKPGASVKMSCKASGYTFSFYNIHWVRQTPGQGLEWIGLIYPDNGDTSYNQKFKAKATLTADKSSSTAYMQLSSLTSEDSAVYYCARGGFDYWGQGTTLTVSSGGGGSGGGGSGGGGSDVLMTQSPASLSASVGETVTITCGASENIYGALNWYQRKQGKSPQLLIYGATNLADGMSSRFSGSGSGRQYSLKISSLHPDDVATYYCQNVLSTPYTFGGGTKLEIKESKYGPPCPPCPAPEAAGGPSVFLFPPKPKDTLMISRTPEVTCVVVDVSQEDPEVQFNWYVDGVEVHNAKTKPREEQFNSTYRVVSVLTVLHQDWLNGKEYKCKVSNKGLPSSIEKTISKAKGQPREPQVYTLPPSQEEMTKNQVSLTCLVKGFYPSDIAVEWESNGQPENNYKTTPPVLDSDGSFFLYSKLTVDKSRWQEGNVFSCSVMHEALHNHYTQKSLSLSLG
B7: 3D6 scFv-Fc (Fc fusion)
chain: QVQLQQSGAELVKPGASVKMSCKASGYTFRYYNMHWVKRTPGQGLEWIGLIYPDNGDTSYNQKFKGKATLTADTSSSTAYMQLSSLTSEDSAVYYCARGGLDYWGQGTSLTVSSGGGGSGGGGSGGGGSDIQMTQSPASLSVSVGETVTITCRASENIYSNLAWYQQKQGKSPQLLVYNAKTLADGVPSRFSGSGSGTQYSLKINSLQPEDFGSYYCQHFWSTPFTFGSGTKLELKESKYGPPCPPCPAPEAAGGPSVFLFPPKPKDTLMISRTPEVTCVVVDVSQEDPEVQFNWYVDGVEVHNAKTKPREEQFNSTYRVVSVLTVLHQDWLNGKEYKCKVSNKGLPSSIEKTISKAKGQPREPQVYTLPPSQEEMTKNQVSLTCLVKGFYPSDIAVEWESNGQPENNYKTTPPVLDSDGSFFLYSKLTVDKSRWQEGNVFSCSVMHEALHNHYTQKSLSLSLG
B8: 3F5 scFv-Fc (Fc fusion)
chain: EIQLQQSGAELVKPGASVKMSCKASGYTFRYYNMHWVKRTPGQGLEWIGLIYPDNGDTSYNQKFKGKATLTADTSSSTAYMQLSSLTSEDSAVYYCARGGLDYWGQGTTLTVSSGGGGSGGGGSGGGGSDIVLTQSPASLSASVGETVTITCGASENIYGALNWYQRKQGKSPQLLIYGATNLADGMSSRFSGSGSGRQYSLKISSLHPDDVATYYCQNVLSTPYTFGGGTKLEIKESKYGPPCPPCPAPEAAGGPSVFLFPPKPKDTLMISRTPEVTCVVVDVSQEDPEVQFNWYVDGVEVHNAKTKPREEQFNSTYRVVSVLTVLHQDWLNGKEYKCKVSNKGLPSSIEKTISKAKGQPREPQVYTLPPSQEEMTKNQVSLTCLVKGFYPSDIAVEWESNGQPENNYKTTPPVLDSDGSFFLYSKLTVDKSRWQEGNVFSCSVMHEALHNHYTQKSLSLSLG
B9: 3C9 scFv-Fc (Fc fusion)
chain: B8 chain with T28I, V132Q, L133M, T134I
B10: 3B7 scFv displayed on phage (scFv)
scFv: EVQLQQSGAELVKPGASVKMSCKASGYTFRYYNMHWVKRTPGQGLEWIGLIYPDNGDTSYNQKFKGKATLTADTSSSTAYMQLSSLTSEDSAVYYCARGGFDYWGQGTTLTVSSGGGGSGGGGSGGGGSDIQMTQSPASLSASVGETVTITCGASENIYGALNWYQRKQGKSPQLLIYGATNLADGMSSRFSGSGSGRQYSLKISSLHPDDVATYYCQNVLSTPYTFGGGTKLELK
B11: 3C9 scFv displayed on phage (scFv)
scFv: B10 scFv with V2I, T28I, F101L, T134I, L235I
B12: 3C7 scFv displayed on phage (scFv)
scFv: EIQLQQSGAELVKPGASVKMSCKASGYIFRNYYIHWVKRTPGQGLEWIGAIYPDNGDTSYNQRFKVKATLTADTSSSTAYMQLSSLTSEDSAVYYCARAFTYWGQGTTLTVSSGGGGSGGGGSGGGGSDIQMIQSPASLSASVGETVTITCGASENIYGALNWYQRKQGKSPQLLIYGATNLADGMSSRFSGSGSGRQYSLKISSLHPDDVATYYCQNVLSTPYTFGGGTKLEIK

The first assay deals with FGFR1 (acro) (UniProt P11362). Description: ELISA, antibody 10 µg/mL.
Chain of FGFR1 (acro) (P11362 22-376): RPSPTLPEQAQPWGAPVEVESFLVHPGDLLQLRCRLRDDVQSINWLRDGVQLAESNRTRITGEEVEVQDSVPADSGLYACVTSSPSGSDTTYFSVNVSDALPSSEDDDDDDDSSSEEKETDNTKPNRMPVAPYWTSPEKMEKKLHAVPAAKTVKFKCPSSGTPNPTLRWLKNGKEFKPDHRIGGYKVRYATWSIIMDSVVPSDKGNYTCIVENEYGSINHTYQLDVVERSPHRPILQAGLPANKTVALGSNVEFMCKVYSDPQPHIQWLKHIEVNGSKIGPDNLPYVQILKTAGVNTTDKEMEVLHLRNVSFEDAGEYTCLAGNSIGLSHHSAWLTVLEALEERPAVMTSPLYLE
With B1, the OD (450 nm) value stood at 0.093.

For the molecule B2, the OD (450 nm) value turned out to be 0.077.

The molecule B3 showed an OD (450 nm) value of 0.076.

In turn, B4 came in with an OD (450 nm) value of 0.077.

As to B5, the OD (450 nm) value came out at 0.076.

The molecule B6 came in with an OD (450 nm) value of 0.086.

The molecule B7 had an OD (450 nm) value of 0.693.

B8: the OD (450 nm) value was found to be 0.108.

B9 returned an OD (450 nm) value of 0.113.

The target in the next assay is recombinant mouse FGFR2b (mouse) (UniProt P21803). The experiment in a line: BLI, antibody on AHC2 sensor. (Biolayer interferometry detects binding as a change in optical thickness at a sensor tip.)
Chain of recombinant mouse FGFR2b (mouse) (P21803 22-377): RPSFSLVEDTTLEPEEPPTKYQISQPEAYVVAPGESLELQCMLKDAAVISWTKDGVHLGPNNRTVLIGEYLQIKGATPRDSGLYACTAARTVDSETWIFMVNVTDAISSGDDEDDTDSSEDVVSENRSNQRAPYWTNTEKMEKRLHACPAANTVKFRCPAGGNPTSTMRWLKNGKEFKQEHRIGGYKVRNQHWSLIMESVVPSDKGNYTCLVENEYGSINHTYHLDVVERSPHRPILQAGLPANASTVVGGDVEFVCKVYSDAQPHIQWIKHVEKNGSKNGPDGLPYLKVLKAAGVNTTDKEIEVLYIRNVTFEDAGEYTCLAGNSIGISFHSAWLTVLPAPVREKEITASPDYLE
In general, Kd refers to the constant that tells how readily two partners part at equilibrium. What is called koff is the first-order rate constant of dissociation. The term kon denotes the rate constant with which the complex forms. On to B1, for which the Kd amounted to 40.9 nM, the koff amounted to 0.00175 s⁻¹ and the kon was 42800 M⁻¹ s⁻¹.

As for B2, the Kd was determined as 8.71 nM, the koff is 0.000365 s⁻¹ and the kon was found to be 41900 M⁻¹ s⁻¹.

As to B3, the Kd was found to be 10.7 nM, the koff is 0.000485 s⁻¹ and the kon was 45400 M⁻¹ s⁻¹.

On to B4, for which the dissociation constant (Kd) was found to be 43.7 nM, the koff is 0.00156 s⁻¹ and the kon came out at 35700 M⁻¹ s⁻¹.

For the molecule B5, the Kd is 23 nM, the koff was 0.00126 s⁻¹ and the kon worked out at 54800 M⁻¹ s⁻¹.

For the molecule B6, the dissociation constant Kd was 52.5 nM, the koff worked out at 0.00217 s⁻¹ and the kon came to 41300 M⁻¹ s⁻¹.

Regarding B7, the dissociation constant Kd was determined as 21.7 nM, the koff was found to be 0.000593 s⁻¹ and the kon is 27400 M⁻¹ s⁻¹.

As to B8, the Kd is 36.1 nM, the koff turned out to be 0.00162 s⁻¹ and the kon came out at 44800 M⁻¹ s⁻¹.

Regarding B9, the Kd was 9.95 nM, the koff is 0.000483 s⁻¹ and the kon was 48500 M⁻¹ s⁻¹.

A further assay shares this target. The experiment in a line: ELISA, antibody 1ug/mL. (In general: An ELISA detects its analyte on a solid surface through an enzyme-linked reagent.)
As for B1, the OD (450 nm) value is 2.29.

Take B2: the OD (450 nm) value worked out at 3.1.

For B3, the OD (450 nm) value is 2.91.

With B4, the OD (450 nm) value stood at 2.39.

With B5, the OD (450 nm) value amounted to 2.72.

Regarding B6, the OD (450 nm) value is 2.87.

In the case of B7, the OD (450 nm) value came out at 2.59.

For the molecule B8, the OD (450 nm) value was 2.38.

Regarding B9, the OD (450 nm) value was determined as 2.57.

For another assay, the target named is extracellular domain of the FGFR2b protein (NP_075259.4) (UniProt P21802). Description: phage ELISA.
Chain of extracellular domain of the FGFR2b protein (NP_075259.4) (P21802 other isoform, or with tags, fused parts or gaps): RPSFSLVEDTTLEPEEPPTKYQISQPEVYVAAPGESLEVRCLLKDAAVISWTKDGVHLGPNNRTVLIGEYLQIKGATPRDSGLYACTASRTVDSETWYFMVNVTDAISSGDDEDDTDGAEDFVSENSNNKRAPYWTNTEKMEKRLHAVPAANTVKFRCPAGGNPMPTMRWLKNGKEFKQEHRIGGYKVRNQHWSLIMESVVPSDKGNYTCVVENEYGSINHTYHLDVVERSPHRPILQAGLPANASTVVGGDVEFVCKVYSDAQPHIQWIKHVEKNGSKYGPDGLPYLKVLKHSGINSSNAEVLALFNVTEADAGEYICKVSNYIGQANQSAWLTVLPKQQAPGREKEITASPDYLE
B10 displayed an OD (450 nm) value of 2.03.

The molecule B11 yielded an OD (450 nm) value of 2.08.

For the molecule B12, the OD (450 nm) value is 2.02.
